T1: B-P564 peptide (biotin-labeled HIF-1α 556-575 peptide)
T1 chain: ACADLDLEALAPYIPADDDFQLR

T2: F-N803 peptide (FITC-labeled HIF-1α 788-822 peptide)
T2 chain: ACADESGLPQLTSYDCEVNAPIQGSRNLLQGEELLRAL

B1: GST-PHD2 (human prolyl hydroxylase 2, amino acids 184-426) (protein)
chain: QTKPLPALKLALEYIVPCMNKHGICVVDDFLGKETGQQIGDEVRALHDTGKFTDGQLVSQKSDSSKDIRGDKITWIEGKEPGCETIGLLMSSMDDLIRHCNGKLGSYKINGRTKAMVACYPGNGTGYVRHVDNPNGDGRCVTCIYYLNKDWDAKVSGGILRIFPEGKAQFADIEPKFDRLLFFWSDRRNPHEVQPAYATRYAITVWYFDADERARAKVKYLTGEKGVRVELNKPSDSVGKDVF
B2: His-FIH1 (human factor inhibiting HIF1, amino acids 1-349) (protein)
chain: MAATAAEAVASGSGEPREEAGALGPAWDESQLRSYSFPTRPIPRLSQSDPRAEELIENEEPVVLTDTNLVYPALKWDLEYLQENIGNGDFSVYSASTHKFLYYDEKKMANFQNFKPRSNREEMKFHEFVEKLQDIQQRGGEERLYLQQTLNDTVGRKIVMDFLGFNWNWINKQQGKRGWGQLTSNLLLIGMEGNVTPAHYDEQQNFFAQIKGYKRCILFPPDQFECLYPYPVHHPCDRQSQVDFDNPDYERFPNFQNVVGYETVVGPGDVLYIPMYWWHHIESLLNGGITITVNFWYKGAPTPKRIEYPLKAHQKVAIMRNIEKMLGEALGNPQEVGPLLNTMIKGRYN

Assays:
[1] = target: T1, B-P564 peptide (biotin-labeled HIF-1α …)
[2] = target: T2, F-N803 peptide (FITC-labeled HIF-1α …)

Protein	proline hydroxylation of the peptide, MALDI mass spectrometry [1]	asparagine hydroxylation of the peptide, MALDI mass spectrometry [2]
B1	The proline residue was hydroxylated in the baicalein-free reactant	
B2		The asparagine residue was hydroxylated in the baicalein-free reactant

Reference: patent US20100004325
